Test results published in patent publication US20260144882A1 (BIO THERA SOLUTIONS, published 2026).

Biological target: T1, human Nectin-4 extracellular antigen hNectin-4-His (human, UniProt Q96NY8 32-349)
T1 construct: C-terminal 8xHis tag included
T1 sequence: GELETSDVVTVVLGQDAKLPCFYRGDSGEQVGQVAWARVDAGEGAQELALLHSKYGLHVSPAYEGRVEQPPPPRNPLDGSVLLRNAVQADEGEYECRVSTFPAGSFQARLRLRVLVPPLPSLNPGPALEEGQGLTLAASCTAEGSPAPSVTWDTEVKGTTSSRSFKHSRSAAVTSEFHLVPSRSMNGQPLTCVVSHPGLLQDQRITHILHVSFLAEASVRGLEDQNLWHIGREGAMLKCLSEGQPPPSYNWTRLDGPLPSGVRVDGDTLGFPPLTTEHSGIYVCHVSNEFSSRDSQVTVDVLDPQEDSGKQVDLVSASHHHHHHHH
Experiment: ELISA, phage scFv supernatant 1:50
Procedure: The supernatants were diluted 50-fold, and the binding OD values of the diluted supernatants to hNectin-4-His were measured by ELISA. The samples were serially 3-fold diluted, and the EC₅₀ titer for the binding of the supernatants to the antigen was measured by ELISA. […] The light chain variable region sequence is set forth in SEQ ID NO: 25. The OD value is the measurement of ELISA, and the EC₅₀ value denotes the EC₅₀ value of the binding activity titer of the supernatant to the antigen.

B1: 1F3-2A12 scFv (scFv, V domains shown)
VH: EVQLVESGGGLVQPGGSLRLSCAASGYSFDSYGMSWVRQAPGKGLEWVSGIKPTGASTYYADSVKGRFTISRDNSKNTLYLQMNSLRAEDTAVYYCARAELLAFDVYTASDYWGQGTLVTVSS
VL: DIQMTQSPSSLSASVGDRVTITCRASQGISSYLAWYQQKPGKAPKLLIYAASSLQSGVPSRFSGSGSGTDFTLTISSLQPEDFATYYCQQHYTTPPTFGQGTKVEIKR
notes: phage clone supernatant
  OD value: 1.65 OD

B2: 1F3-2B9 scFv (scFv, V domains shown)
VH: EVQLVESGGGLVQPGGSLRLSCAASGFNFDSYAMSWVRQAPGKGLEWVSGIKPHTDDIYYADSVKGRFTISRDNSKNTLYLQMNSLRAEDTAVYYCARAELLAFDVYTASDYWGQGTLVTVSS
VL: DIQMTQSPSSLSASVGDRVTITCRASQGISSYLAWYQQKPGKAPKLLIYAASSLQSGVPSRFSGSGSGTDFTLTISSLQPEDFATYYCQQHYTTPPTFGQGTKVEIKR
notes: phage clone supernatant
  OD value: 1.57 OD

B3: 1F3-2C6 scFv (scFv, V domains shown)
VH: EVQLVESGGGLVQPGGSLRLSCAASGDIFTNYSMSWVRQAPGKGLEWVSGIYASGSDKRYADSVKGRFTISRDNSKNTLYLQMNSLRAEDTAVYYCARAELLAFDVYTASDYWGQGTLVTVSS
VL: DIQMTQSPSSLSASVGDRVTITCRASQGISSYLAWYQQKPGKAPKLLIYAASSLQSGVPSRFSGSGSGTDFTLTISSLQPEDFATYYCQQHYTTPPTFGQGTKVEIKR
notes: phage clone supernatant
  OD value: 1.38 OD

B4: 1F3-2C9 scFv (scFv, V domains shown)
VH: EVQLVESGGGLVQPGGSLRLSCAASGFNFGGYGMSWVRQAPGKGLEWVSRISPGDSTPRYADSVKGRFTISRDNSKNTLYLQMNSLRAEDTAVYYCARAELLAFDVYTASDYWGQGTLVTVSS
VL: DIQMTQSPSSLSASVGDRVTITCRASQGISSYLAWYQQKPGKAPKLLIYAASSLQSGVPSRFSGSGSGTDFTLTISSLQPEDFATYYCQQHYTTPPTFGQGTKVEIKR
notes: phage clone supernatant
  OD value: 1.59 OD

B5: 1F3-2G9 scFv (scFv, V domains shown)
VH: EVQLVESGGGLVQPGGSLRLSCAASGFTFGGYGMSWVRQAPGKGLEWVSWISAWDGSIYYADSVKGRFTISRDNSKNTLYLQMNSLRAEDTAVYYCARAELLAFDVYTASDYWGQGTLVTVSS
VL: DIQMTQSPSSLSASVGDRVTITCRASQGISSYLAWYQQKPGKAPKLLIYAASSLQSGVPSRFSGSGSGTDFTLTISSLQPEDFATYYCQQHYTTPPTFGQGTKVEIKR
notes: phage clone supernatant
  OD value: 1.38 OD

B6: 1F3-2E12 scFv (scFv, V domains shown)
VH: EVQLVESGGGLVQPGGSLRLSCAASGGNFTNSGMSWVRQAPGKGLEWVSGIKWSSDETYYADSVKGRFTISRDNSKNTLYLQMNSLRAEDTAVYYCARAELLAFDVYTASDYWGQGTLVTVSS
VL: DIQMTQSPSSLSASVGDRVTITCRASQGISSYLAWYQQKPGKAPKLLIYAASSLQSGVPSRFSGSGSGTDFTLTISSLQPEDFATYYCQQHYTTPPTFGQGTKVEIKR
notes: phage clone supernatant
  OD value: 1.52 OD

B7: 1F3-2B1 scFv (scFv, V domains shown)
VH: EVQLVESGGGLVQPGGSLRLSCAASGYNFDNYAMSWVRQAPGKGLEWVSGIKPDSATTYYADSVKGRFTISRDNSKNTLYLQMNSLRAEDTAVYYCARAELLAFDVYTASDYWGQGTLVTVSS
VL: DIQMTQSPSSLSASVGDRVTITCRASQGISSYLAWYQQKPGKAPKLLIYAASSLQSGVPSRFSGSGSGTDFTLTISSLQPEDFATYYCQQHYTTPPTFGQGTKVEIKR
notes: phage clone supernatant
  OD value: 1.62 OD

B8: 1F3-2F3 scFv (scFv, V domains shown)
VH: EVQLVESGGGLVQPGGSLRLSCAASGFNFSDYGMSWVRQAPGKGLEWVSRIDWDGGNTRYADSVKGRFTISRDNSKNTLYLQMNSLRAEDTAVYYCARAELLAFDVYTASDYWGQGTLVTVSS
VL: DIQMTQSPSSLSASVGDRVTITCRASQGISSYLAWYQQKPGKAPKLLIYAASSLQSGVPSRFSGSGSGTDFTLTISSLQPEDFATYYCQQHYTTPPTFGQGTKVEIKR
notes: phage clone supernatant
  OD value: 1.57 OD

B9: 1F3-2D2 scFv (scFv, V domains shown)
VH: EVQLVESGGGLVQPGGSLRLSCAASGFNFSSYGMSWVRQAPGKGLEWVSRISPYTGTTHYADSVKGRFTISRDNSKNTLYLQMNSLRAEDTAVYYCARAELLAFDVYTASDYWGQGTLVTVSS
VL: DIQMTQSPSSLSASVGDRVTITCRASQGISSYLAWYQQKPGKAPKLLIYAASSLQSGVPSRFSGSGSGTDFTLTISSLQPEDFATYYCQQHYTTPPTFGQGTKVEIKR
notes: phage clone supernatant
  OD value: 1.59 OD

B10: 1F3-2E8 scFv (scFv, V domains shown)
VH: EVQLVESGGGLVQPGGSLRLSCAASGYSFSDYGMSWVRQAPGKGLEWVSWISPSKGSASYADSVKGRFTISRDNSKNTLYLQMNSLRAEDTAVYYCARAELLAFDVYTASDYWGQGTLVTVSS
VL: DIQMTQSPSSLSASVGDRVTITCRASQGISSYLAWYQQKPGKAPKLLIYAASSLQSGVPSRFSGSGSGTDFTLTISSLQPEDFATYYCQQHYTTPPTFGQGTKVEIKR
notes: phage clone supernatant
  OD value: 1.56 OD

B11: 1F3-2G10 scFv (scFv, V domains shown)
VH: EVQLVESGGGLVQPGGSLRLSCAASGFNFSNYGMSWVRQAPGKGLEWVSRIKPTDGSTHYADSVKGRFTISRDNSKNTLYLQMNSLRAEDTAVYYCARAELLAFDVYTASDYWGQGTLVTVSS
VL: DIQMTQSPSSLSASVGDRVTITCRASQGISSYLAWYQQKPGKAPKLLIYAASSLQSGVPSRFSGSGSGTDFTLTISSLQPEDFATYYCQQHYTTPPTFGQGTKVEIKR
notes: phage clone supernatant
  OD value: 1.54 OD

B12: 1F3-2F6 scFv (scFv, V domains shown)
VH: EVQLVESGGGLVQPGGSLRLSCAASGFTFSDYGMSWVRQAPGKGLEWVSRISQYGGGIRYADSVKGRFTISRDNSKNTLYLQMNSLRAEDTAVYYCARAELLAFDVYTASDYWGQGTLVTVSS
VL: DIQMTQSPSSLSASVGDRVTITCRASQGISSYLAWYQQKPGKAPKLLIYAASSLQSGVPSRFSGSGSGTDFTLTISSLQPEDFATYYCQQHYTTPPTFGQGTKVEIKR
notes: phage clone supernatant
  OD value: 1.52 OD

B13: 1F3-2B2 scFv (scFv, V domains shown)
VH: EVQLVESGGGLVQPGGSLRLSCAASGYNFYSYGMSWVRQAPGKGLEWVSIISPDGGYKRYADSVKGRFTISRDNSKNTLYLQMNSLRAEDTAVYYCARAELLAFDVYTASDYWGQGTLVTVSS
VL: DIQMTQSPSSLSASVGDRVTITCRASQGISSYLAWYQQKPGKAPKLLIYAASSLQSGVPSRFSGSGSGTDFTLTISSLQPEDFATYYCQQHYTTPPTFGQGTKVEIKR
notes: phage clone supernatant
  OD value: 1.57 OD

B14: 1F3-2B2-2 scFv (scFv, V domains shown)
VH: EVQLVESGGGLVQPGGSLRLSCAASGYSFSDFGMSWVRQAPGKGLEWVSRIDPSGWSTSYADSVKGRFTISRDNSKNTLYLQMNSLRAEDTAVYYCARAELLAFDVYTASDYWGQGTLVTVSS
VL: DIQMTQSPSSLSASVGDRVTITCRASQGISSYLAWYQQKPGKAPKLLIYAASSLQSGVPSRFSGSGSGTDFTLTISSLQPEDFATYYCQQHYTTPPTFGQGTKVEIKR
notes: phage clone supernatant
  OD value: 1.59 OD

B15: 1F3-2F1 scFv (scFv, V domains shown)
VH: EVQLVESGGGLVQPGGSLRLSCAASGDIFTGYSMSWVRQAPGKGLEWVSGIYQTGSNTRYADSVKGRFTISRDNSKNTLYLQMNSLRAEDTAVYYCARAELLAFDVYTASDYWGQGTLVTVSS
VL: DIQMTQSPSSLSASVGDRVTITCRASQGISSYLAWYQQKPGKAPKLLIYAASSLQSGVPSRFSGSGSGTDFTLTISSLQPEDFATYYCQQHYTTPPTFGQGTKVEIKR
notes: phage clone supernatant
  OD value: 1.02 OD

B16: 1F3-2D8 scFv (scFv, V domains shown)
VH: EVQLVESGGGLVQPGGSLRLSCAASGYSFSDYGMSWVRQAPGKGLEWVSRISPSKAVKDYADSVKGRFTISRDNSKNTLYLQMNSLRAEDTAVYYCARAELLAFDVYTASDYWGQGTLVTVSS
VL: DIQMTQSPSSLSASVGDRVTITCRASQGISSYLAWYQQKPGKAPKLLIYAASSLQSGVPSRFSGSGSGTDFTLTISSLQPEDFATYYCQQHYTTPPTFGQGTKVEIKR
notes: phage clone supernatant
  OD value: 1.56 OD
